This test has as its target SARS-CoV-2 Delta + T51I + T95I spike protein (authentic virus) (SARS-CoV-2), P0DTC2. The test can be described thus: cell-based or functional assay.

B1: RQ43-GL-H-LO1 (TM-YTE) (antibody, V domains shown)
VH: EVQLVESGGGLVQPGRSLRLSCAASGFPFDDYAIHWVRLAPGKGLEWVSSISWDSGSIGYADSVKGRFTISRDNAKNSLYLQMNSLRAEDTALYYCAKGAFPGYSSGWYYGLEVWGQGTTVTVSS
VL: QSVVTQPPSASGSLGQSVTISCTGTSSDVGGYNYVSWYQQHPGKAPKLMIFEVSKRPSGVPDRFSGSKSGNTASLTVSGLQAEDEADYYCSSYAGNKGVFGGGTKLTVL
B1: the Authentic Virus Neutralization IC50 worked out at 21 ng/mL.

(Values after patent US20250289871A1.)
